Test [1] addresses T1, Ded1-His6 (S. cerevisiae, UniProt P06634 1-604).
T1 construct: Ded1 of S. cerevisiae, recombinant, expressed from pET22b; Printed name Ded1-His6; source: E. coli (pET22b), purified on nickel-agarose
Description: pull-down; Ded1 bound to protein A Sepharose beads crosslinked to IgG against Ded1, incubated with single purified proteins, washed, eluted; Coomassie-stained SDS PAGE, western blot for Pab1 and Cbp80; same results with or without RNase I or AMP-PNP. To be noted: both partners purified.

Test [2] deals with T1, Ded1-His6. Description: cell-based or functional assay.
Test [3] deals with T2, GST-NAB2-HIS6 (S. cerevisiae, UniProt P32505 1-525).
T2 construct: source: E. coli, purified on nickel-agarose
T2 sequence (looked up): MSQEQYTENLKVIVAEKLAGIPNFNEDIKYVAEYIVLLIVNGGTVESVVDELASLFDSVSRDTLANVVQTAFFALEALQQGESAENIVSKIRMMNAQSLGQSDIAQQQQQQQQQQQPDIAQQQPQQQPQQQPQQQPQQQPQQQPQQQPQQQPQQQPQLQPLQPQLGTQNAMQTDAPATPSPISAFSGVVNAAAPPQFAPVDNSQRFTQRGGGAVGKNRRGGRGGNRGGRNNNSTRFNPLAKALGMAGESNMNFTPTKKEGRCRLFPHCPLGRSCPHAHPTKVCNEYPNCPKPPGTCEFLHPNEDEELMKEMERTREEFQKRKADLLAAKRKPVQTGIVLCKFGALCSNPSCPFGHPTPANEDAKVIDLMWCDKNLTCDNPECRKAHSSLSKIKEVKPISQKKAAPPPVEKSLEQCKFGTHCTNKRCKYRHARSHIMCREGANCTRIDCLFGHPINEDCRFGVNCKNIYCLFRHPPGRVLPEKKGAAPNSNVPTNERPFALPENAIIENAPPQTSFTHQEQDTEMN
Briefly: pull-down; 7-methyl-GTP Sepharose beads loaded with 5 μg purified eIF4E or Cbp20, 5 μg of the purified proteins added with 50 U RNase I, 90 min on ice, TpB buffer (20 mM HEPES pH 7.9, 100 mM KCl, 2 mM MgCl2, 2 mM DTT), eluted with 1 mM 7-methyl-GTP; Coomassie-stained SDS PAGE. The note with it: both partners purified.

T1 sequence (P06634 whole entry): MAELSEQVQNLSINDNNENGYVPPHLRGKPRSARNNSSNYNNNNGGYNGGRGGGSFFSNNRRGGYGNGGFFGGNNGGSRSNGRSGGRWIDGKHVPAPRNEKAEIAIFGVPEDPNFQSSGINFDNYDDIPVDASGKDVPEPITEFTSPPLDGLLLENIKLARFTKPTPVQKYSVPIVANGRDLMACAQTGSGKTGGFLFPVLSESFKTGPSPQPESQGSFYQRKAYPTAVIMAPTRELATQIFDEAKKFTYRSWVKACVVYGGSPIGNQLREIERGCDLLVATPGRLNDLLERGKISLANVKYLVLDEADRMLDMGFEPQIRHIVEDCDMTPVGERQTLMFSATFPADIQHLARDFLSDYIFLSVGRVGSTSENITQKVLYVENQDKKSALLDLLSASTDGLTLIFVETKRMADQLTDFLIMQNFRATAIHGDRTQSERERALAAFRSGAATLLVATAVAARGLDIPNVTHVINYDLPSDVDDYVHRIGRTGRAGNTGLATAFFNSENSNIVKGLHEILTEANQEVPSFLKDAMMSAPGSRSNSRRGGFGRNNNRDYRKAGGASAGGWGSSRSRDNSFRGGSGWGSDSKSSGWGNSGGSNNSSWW

B1: eIF4G-His6 fragment 387–952 (domain or fragment, S. cerevisiae, UniProt P39935 387-952, looked up)
chain: AGTKIGLEAEIETTTDETDDGTNTVSHILNVLKDATPIEDVFSFNYPEGIEGPDIKYKKEHVKYTYGPTFLLQFKDKLNVKADAEWVQSTASKIVIPPGMGRGNRSRDSGRFGNNSSRGHDFRNTSVRNMDDRANSRTSSKRRSKRMNDDRRSNRSYTSRRDRERGSYRNEEKREDDKPKEEVAPLVPSANRWVPKFKSKKTEKKLAPDGKTELLDKDEVERKMKSLLNKLTLEMFDAISSEILAIANISVWETNGETLKAVIEQIFLKACDEPHWSSMYAQLCGKVVKELNPDITDETNEGKTGPKLVLHYLVARCHAEFDKGWTDKLPTNEDGTPLEPEMMSEEYYAAASAKRRGLGLVRFIGFLYRLNLLTGKMMFECFRRLMKDLTDSPSEETLESVVELLNTVGEQFETDSFRTGQATLEGSQLLDSLFGILDNIIQTAKISSRIKFKLIDIKELRHDKNWNSDKKDNGPKTIQQIHEEEERQRQLKNNSRSNSRRTNNSSNRHSFRRDAPPASKDSFITTRTYSQRNSQRAPPPKEEPAAPTSTATNMFSALMGESDDEE
notes: Not among the constructs of the methods
As to B1, in test [1], the binding result was “binds”.

B2: His6-Cbp20 (natural protein, S. cerevisiae, UniProt Q08920 1-208, looked up)
chain: MSLEEFDEVKYDHSTKRLDTPSRYLLRKARRNPNGLQELRESMKSSTIYVGNLSFYTSEEQIYELFSKCGTIKRIIMGLDRFKFTPCGFCFIIYSCPDEALNALKYLSDTKLDEKTITIDLDPGFEDGRQFGRGKSGGQVSDELRFDFDASRGGFAIPFAERVGVPHSRFDNSSSQSNTNNYIPPPDAMGTFRPGFDEEREDDNYVPQ
notes: Cbp20 of S. cerevisiae subcloned from pRSETC20 into the NdeI-BamHI sites of pET19b; Printed name His6-Cbp20; also called Cpb20; source: E. coli (pET19b), purified on nickel-agarose
In the case of B2, in test [2], the “RNA-dependent ATPase activity, % Ded1” value was 97%. Moreover, the binding result in test [3] is on record as “binds”.

The values are drawn from PMC4150762, “The DEAD-box helicase Ded1 from yeast is an mRNP cap-associated protein that shuttles between the cytoplasm and nucleus” (Nucleic Acids Research, 2014).
